Laboratory results as given in article PMC7083938, “NELL2-Robo3 complex structure reveals mechanisms of receptor activation for axon guidance” (Nature Communications, 2020).

Tests used:
Assay in all cases: flow cytometry on cells; biotinylated ligand at various concentrations, 30 min at 4 °C in PBS + 0.1% BSA, on Drosophila S2 cells displaying the partner (C-terminal FLAG, rat Neurexin-1 transmembrane helix); Cy5-streptavidin; gated on anti-FLAG positive cells; MFI fit to a single-site model; apparent KD
Settings in all cases: one partner purified
[1] = molecular target: T1, hRobo3 FN1-3 T604A, biotinylated (human, UniProt Q96MS0 549-870, T604A, biotin on the Avi-tag (BirA))
T1 construct: human Robo3, FN domains 1-3, P549-L870; source: High Five cells (baculovirus), purified, biotinylated with BirA (general methods)
T1 sequence (looked up): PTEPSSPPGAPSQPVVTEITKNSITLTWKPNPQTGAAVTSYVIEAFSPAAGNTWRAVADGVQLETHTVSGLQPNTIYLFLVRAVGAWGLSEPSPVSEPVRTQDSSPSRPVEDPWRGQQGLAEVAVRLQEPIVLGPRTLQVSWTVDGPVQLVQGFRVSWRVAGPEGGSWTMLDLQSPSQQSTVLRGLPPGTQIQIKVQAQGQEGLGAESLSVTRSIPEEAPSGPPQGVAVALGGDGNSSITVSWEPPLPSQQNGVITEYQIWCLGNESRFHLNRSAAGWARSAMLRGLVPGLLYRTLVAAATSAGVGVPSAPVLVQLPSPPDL

[2] = molecular target: T2, hRobo3 FN1-3 E639A, biotinylated (human, UniProt Q96MS0 549-870, E639A, biotin on the Avi-tag (BirA))
T2 construct: human Robo3, FN domains 1-3, P549-L870; source: High Five cells (baculovirus), purified, biotinylated with BirA (general methods)
T2 sequence (looked up): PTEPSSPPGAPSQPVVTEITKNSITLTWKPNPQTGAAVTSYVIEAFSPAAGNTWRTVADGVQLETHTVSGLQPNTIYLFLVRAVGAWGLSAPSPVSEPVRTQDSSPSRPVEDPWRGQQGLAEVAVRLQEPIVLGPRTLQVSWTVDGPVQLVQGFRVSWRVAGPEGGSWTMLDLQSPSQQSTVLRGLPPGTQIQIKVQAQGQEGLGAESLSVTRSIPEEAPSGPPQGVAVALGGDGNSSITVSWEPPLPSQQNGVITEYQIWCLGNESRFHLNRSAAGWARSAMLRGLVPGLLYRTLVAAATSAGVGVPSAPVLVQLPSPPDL

[3] = molecular target: T3, hRobo3 FN1-3 W635A, biotinylated (human, UniProt Q96MS0 549-870, W635A, biotin on the Avi-tag (BirA))
T3 construct: human Robo3, FN domains 1-3, P549-L870; source: High Five cells (baculovirus), purified, biotinylated with BirA (general methods)
T3 sequence (looked up): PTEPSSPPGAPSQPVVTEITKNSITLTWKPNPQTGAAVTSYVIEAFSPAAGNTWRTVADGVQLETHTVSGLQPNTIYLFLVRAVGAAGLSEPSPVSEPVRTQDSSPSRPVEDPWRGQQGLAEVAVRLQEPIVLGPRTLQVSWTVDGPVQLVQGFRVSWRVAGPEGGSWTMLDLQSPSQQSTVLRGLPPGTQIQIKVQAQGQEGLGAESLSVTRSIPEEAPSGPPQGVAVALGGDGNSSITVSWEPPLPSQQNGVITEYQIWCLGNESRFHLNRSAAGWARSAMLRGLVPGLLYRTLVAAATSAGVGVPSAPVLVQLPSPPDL

[4] = molecular target: T4, hRobo3 FN1-3 N600A/T601A, biotinylated (human, UniProt Q96MS0 549-870, N600A | T601A, biotin on the Avi-tag (BirA))
T4 construct: human Robo3, FN domains 1-3, P549-L870; source: High Five cells (baculovirus), purified, biotinylated with BirA (general methods)
T4 sequence (looked up): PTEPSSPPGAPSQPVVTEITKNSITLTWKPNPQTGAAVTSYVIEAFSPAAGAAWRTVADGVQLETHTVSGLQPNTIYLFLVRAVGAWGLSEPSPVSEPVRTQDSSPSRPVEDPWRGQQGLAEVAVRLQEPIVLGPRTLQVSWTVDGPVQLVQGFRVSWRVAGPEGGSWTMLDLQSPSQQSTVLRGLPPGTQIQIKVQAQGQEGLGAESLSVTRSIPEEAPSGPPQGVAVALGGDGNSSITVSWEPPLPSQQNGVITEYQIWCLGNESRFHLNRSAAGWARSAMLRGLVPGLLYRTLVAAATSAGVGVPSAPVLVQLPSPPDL

[5] = molecular target: T5, hRobo3 FN1-3, biotinylated (wild type) (human, UniProt Q96MS0 549-870, biotin on the Avi-tag (BirA))
T5 construct: human Robo3, FN domains 1-3, P549-L870; also called WT hRobo3 FN; Robo3FN1-3 WT; source: High Five cells (baculovirus), purified (Ni-NTA, SEC), biotinylated with BirA
T5 sequence (looked up): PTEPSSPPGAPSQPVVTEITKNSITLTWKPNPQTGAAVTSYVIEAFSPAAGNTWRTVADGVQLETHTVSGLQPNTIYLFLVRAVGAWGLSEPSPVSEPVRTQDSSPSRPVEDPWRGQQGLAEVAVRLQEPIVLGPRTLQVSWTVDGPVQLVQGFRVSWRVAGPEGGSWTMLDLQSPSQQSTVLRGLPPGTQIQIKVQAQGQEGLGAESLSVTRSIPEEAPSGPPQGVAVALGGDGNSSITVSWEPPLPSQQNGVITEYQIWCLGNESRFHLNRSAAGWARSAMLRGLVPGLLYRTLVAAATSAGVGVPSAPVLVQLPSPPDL

B1: hNELL2 EGF1-6 displayed on S2 cells (domain or fragment)
chain: not shown
notes: human NELL2, EGF domains 1-6, G397-T637; also called NELL2EGF1-6 WT (Actin 5C, C-terminal FLAG); FLAG-tagged NELL2 EGF1-6; source: Drosophila S2 cells, transiently transfected, on the cell surface; not shown: FLAG, C-terminal, kept; transmembrane helix of rat Neurexin-1, C-terminal, kept
[1]
  Kd: 7.9 µM
[2]
  Kd: 1100 nM
[3]
  Kd: 2900 nM
[4]
  Kd: 2900 nM
[5]
  Kd: 890 nM
